Source: the supplement of paper PMC11246515
± gives the standard deviation of the averaged measurements.

Assay: total protein half-life in vivo (active degradation + dilution); higher = more stable protein
[1] = E. coli NCM3722 delta-clpP delta-lon delta-hslV, growth: N-lim chemostat, doubling time 6 h
[2] = E. coli NCM3722 delta-hslV, growth: N-lim chemostat, doubling time 6 h
[3] = E. coli NCM3722 delta-lon, growth: N-lim chemostat, doubling time 6 h
[4] = E. coli NCM3722 delta-smpB, growth: N-lim chemostat, doubling time 6 h
[5] = wild type E. coli NCM3722, growth: C-lim chemostat, doubling time 3 h
[6] = wild type E. coli NCM3722, growth: C-lim chemostat, doubling time 6 h
[7] = wild type E. coli NCM3722, growth: C-lim chemostat, doubling time 12 h
[8] = wild type E. coli NCM3722, growth: N-lim chemostat, doubling time 6 h
[9] = wild type E. coli NCM3722, growth: N-lim chemostat, doubling time 12 h
[10] = wild type E. coli NCM3722, growth: P-lim chemostat, doubling time 6 h
[11] = wild type E. coli NCM3722, growth: P-lim chemostat, doubling time 12 h
[12] = E. coli NCM3722 delta-clpP, growth: N-lim chemostat, doubling time 6 h

Row | Sequence | total protein half-life in vivo [1] | total protein half-life in vivo [2] | total protein half-life in vivo [3] | total protein half-life in vivo [4] | total protein half-life in vivo [5] | total protein half-life in vivo [6] | total protein half-life in vivo [7] | total protein half-life in vivo [8] | total protein half-life in vivo [9] | total protein half-life in vivo [10] | total protein half-life in vivo [11] | total protein half-life in vivo [12]
1 | MQQVFFQETEFLNSVIDYDHKVETENLCLDIAYGTDKNFLFGCGISIASILKYNEGSRLCFHIFTDYFGDDDRKYFDALALQYKTRIKIYLINGDRLRSLPSTKNWTHAIYFRFVIADYFINKAPKVLYLDADIICQGTIEPLINFSFPDDKVAMVVTEGQADWWEKRAHSLGVAGIAKGYFNSGFLLINTAQWAAQQVSARAIAMLNEPEIIKKITHPDQDVLNMLLADKLIFADIKYNTQFSLNYQLKESFINPVTNDTIFIHYIGPTKPWHDWAWDYPVSQAFMEAKNASPWKNTALLKPNNSNQLRYSAKHMLKKHRYLKGFSNYLFYFIEKIKH | 6.72 ± 0.28 h | 5.66 ± 0.42 h | 5.78 ± 0.3 h | 5.82 ± 0.17 h | 2.95 ± 0.088 h | 5.41 ± 0.61 h | 10.4 ± 1.1 h | 5.16 ± 1.2 h | 11.7 ± 0.74 h | 5.85 ± 0.45 h | 11.3 ± 1 h | 
2 | MQREDVLGEALKLLELQGIANTTLEMVAERVDYPLDELRRFWPDKEAILYDALRYLSQQIDVWRRQLMLDETQTAEQKLLARYQALSECVKNNRYPGCLFIAACTFYPDPGHPIHQLADQQKSAAYDFTHELLTTLEVDDPAMVAKQMELVLEGCLSRMLVNRSQADVDTAHRLAEDILRFARCRQGGALT [P0ACU7] | 3.74 ± 0.51 h | 4.07 ± 0.91 h | 3.78 ± 0.57 h | 3.411 ± 0.028 h | 2.94 ± 0.46 h | 4.86 ± 0.17 h | 10.4 ± 2.6 h | 3.44 ± 0.037 h | 5.51 ± 0.28 h | 5.04 ± 0.78 h | 12 ± 0.99 h | 3.63 ± 0.25 h
3 | MQRGIVWVVDDDSSIRWVLERALAGAGLTCTTFENGAEVLEALASKTPDVLLSDIRMPGMDGLALLKQIKQRHPMLPVIIMTAHSDLDAAVSAYQQGAFDYLPKPFDIDEAVALVERAISHYQEQQQPRNVQLNGPTTDIIGEAPAMQDVFRIIGRLSRSSISVLINGESGTGKELVAHALHRHSPRAKAPFIALNMAAIPKDLIESELFGHEKGAFTGANTIRQGRFEQADGGTLFLDEIGDMPLDVQTRLLRVLADGQFYRVGGYAPVKVDVRIIAATHQNLEQRVQEGKFREDLFHRLNVIRVHLPPLRERREDIPRLARHFLQVAARELGVEAKLLHPETEAALTRLAWPGNVRQLENTCRWLTVMAAGQEVLIQDLPGELFESTVAESTSQMQPDSWATLLAQWADRALRSGHQNLLSEAQPELERTLLTTALRHTQGHKQEAARLLGWGRNTLTRKLKELGME [P0AFB8] | 5.64 ± 0.8 h | 4.86 ± 0.35 h | 5.263 ± 0.02 h | 4.32 ± 0.052 h | 2.678 ± 0.0012 h | 4.85 ± 0.1 h | 8.034 ± 0.033 h | 4.72 ± 0.12 h | 7.57 ± 0.25 h | 4.22 ± 0.085 h | 7.58 ± 0.097 h | 5.18 ± 0.39 h
4 | MQRLFLLVAVMLLSGCLTAPPKEAARPTLMPRAQSYKDLTHLPAPTGKIFVSVYNIQDETGQFKPYPASNFSTAVPQSATAMLVTALKDSRWFIPLERQGLQNLLNERKIIRAAQENGTVAINNRIPLQSLTAANIMVEGSIIGYESNVKSGGVGARYFGIGADTQYQLDQIAVNLRVVNVSTGEILSSVNTSKTILSYEVQAGVFRFIDYQRLLEGEVGYTSNEPVMLCLMSAIETGVIFLINDGIDRGLWDLQNKAERQNDILVKYRHMSVPPES [P0AEA2] |  |  |  |  |  |  |  |  | 4.39 h |  |  | 
5 | MQSLTTALENLLRHLSQEIPATPGIRVIDIPFPLKDAFDALSWLASQQTYPQFYWQQRNGDEEAVVLGAITRFTSLDQAQRFLRQHPEHADLRIWGLNAFDPSQGNLLLPRLEWRRCGGKATLRLTLFSESSLQHDAIQAKEFIATLVSIKPLPGLHLTTTREQHWPDKTGWTQLIELATKTIAEGELDKVVLARATDLHFASPVNAAAMMAASRRLNLNCYHFYMAFDGENAFLGSSPERLWRRRDKALRTEALAGTVANNPDDKQAQQLGEWLMADDKNQRENMLVVEDICQRLQADTQTLDVLPPQVLRLRKVQHLRRCIWTSLNKADDVICLHQLQPTAAVAGLPRDLARQFIARHEPFTREWYAGSAGYLSLQQSEFCVSLRSAKISGNVVRLYAGAGIVRGSDPEQEWQEIDNKAAGLRTLLQME | 4.68 ± 0.47 h | 3.92 ± 0.49 h | 4.47 ± 0.15 h | 3.94 ± 0.32 h | 2.96 ± 0.1 h | 4.82 ± 0.16 h | 10.2 ± 0.62 h | 3.92 ± 0.21 h | 6.68 ± 0.27 h | 5.06 ± 0.77 h | 11.1 ± 0.5 h | > 8 h
6 | MQSVDVAIVGGGMVGLAVACGLQGSGLRVAVLEQRVQEPLAANAPPQLRVSAINAASEKLLTRLGVWQDILSRRASCYHGMEVWDKDSFGHISFDDQSMGYSHLGHIVENSVIHYALWNKAHQSSDITLLAPAELQQVAWGENETFLTLKDGSMLTARLVIGADGANSWLRNKADIPLTFWDYQHHALVATIRTEEPHDAVARQVFHGEGILAFLPLSDPHLCSIVWSLSPEEAQRMQQASEDEFNRALNIAFDNRLGLCKVESARQVFPLTGRYARQFASHRLALVGDAAHTIHPLAGQGVNLGFMDAAELIAELKRLHRQGKDIGQYIYLRRYERSRKHSAALMLAGMQGFRDLFSGTNPAKKLLRDIGLKLADTLPGVKPQLIRQAMGLNDLPEWLR | 5.67 ± 0.7 h | 4.33 ± 0.36 h | 4.06 ± 0.068 h | 4.06 ± 0.21 h | 2.864 ± 0.025 h | 5.52 ± 0.85 h | 7.26 ± 0.26 h | 4.1 ± 0.084 h | 7.19 ± 0.06 h | 3.16 ± 0.12 h | 5.3 ± 0.84 h | 5.28 ± 0.23 h
7 | MQTEQQRAVTRLCIQCGLFLLQHGAESALVDELSSRLGRALGMDSVESSISSNAIVLTTIKDGQCLTSTRKNHDRGINMHVVTEVQHIVILAEHHLLDYKGVEKRFSQIQPLRYPRWLVALMVGLSCACFCKLNNGGWDGAVITFFASTTAMYIRQLLAQRHLHPQINFCLTAFAATTISGLLLQLPTFSNTPTIAMAASVLLLVPGFPLINAVADMFKGHINTGLARWAIASLLTLATCVGVVMALTIWGLRGWV [P0ADD5] |  |  |  |  |  |  | 15.1 h |  |  | 6.86 h |  | 
8 | MQTIIRVEKLAKTFNQHQALHAVDLNIHHGEMVALLGPSGSGKSTLLRHLSGLITGDKSVGSHIELLGRTVQREGRLARDIRKSRAHTGYIFQQFNLVNRLSVLENVLIGALGSTPFWRTCFSWFTGEQKQRALQALTRVGMVHFAHQRVSTLSGGQQQRVAIARALMQQAKVILADEPIASLDPESARIVMDTLRDINQNDGITVVVTLHQVDYALRYCERIVALRQGHVFYDGSSQQFDNERFDHLYRSINRVEENAKAA |  |  |  |  |  |  |  |  |  | 0.231 ± 0.32 h | 0.931 ± 0.95 h | 
